Laboratory results published in patent US20230192860A1 (Bristol-Myers Squibb, published 2023).
“And” between values parts separate entries of the source, which are not always exact repeats. Identical values can stand only once.

What was measured:
[1] = target: T1, monovalent hVISTA-ECD (amino acids 32-193 of SEQ ID NO: 1 with a 7xHis tail) (human, UniProt Q9H7M9 33-193); experiment: SPR 37C, Ab on Protein A, hVISTA-ECD 50-5 nM, pH 6.0, average
T1 construct: analyte of the SPR assays; also called huVISTA-His; human VISTA-ECD
T1 sequence (Q9H7M9 other isoform, or with tags, fused parts or gaps limits assumed): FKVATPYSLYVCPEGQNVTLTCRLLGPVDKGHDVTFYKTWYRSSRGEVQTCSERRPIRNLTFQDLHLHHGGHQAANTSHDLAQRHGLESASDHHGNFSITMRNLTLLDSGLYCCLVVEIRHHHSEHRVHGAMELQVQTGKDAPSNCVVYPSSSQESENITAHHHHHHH
Procedure: Binding of several preparations of each of the ‘029 progeny clones and of the parent ‘029 antibodies, formatted as IgG1.3 antibodies, to human VISTA at pH 6.0 and 7.4 was measured by Surface plasmon resonance (SPR). SPR analysis was performed to measure koff and KD binding affinity measurements for VISTA Abs at acidic and neutral pHs using a Biacore® T100 instrument (GE Healthcare). […] Antibodies were diluted to 25 nM in PBST pH 7.4, and were captured across active biosensor flow cells at 5 ul/min for 60 seconds. A concentration series of 50 - 5 nM monovalent hVISTA-ECD (SEQ ID NO: 325) was prepared in pH 7.4 and 6.0 running buffers, and was injected over the captured antibodies at 40 ul/min to measure association and dissociation. Two 15 second injections of 10 mM glycine pH 1.5 were used to regenerate the Protein A capture surface between assay cycles. Rate constants ka (kₒₙ) and kd (koff) were derived from reference flow cell and 0 nM blank-subtracted sensorgrams, and were fit to a 1:1 binding model in Biacore® T200 Evaluation Software v.2.0. The affinity constant, KD was calculated as the ratio of rate constants koff/kₒₙ for each VISTA antibody.

hVISTA-ECD 6-His tag [2] = target: T2, hVISTA-ECD 6-His tag (human, UniProt Q9H7M9 33-193); experiment: SPR, Ab on Protein A, hVISTA analyte, pH 6.9
T2 construct: also called monovalent hVISTA-ECD; human VISTA
T2 sequence (Q9H7M9 other isoform, or with tags, fused parts or gaps limits assumed): as above
Procedure: Further binding kinetic experiments were performed at various pHs on VISTA antibodies described herein by SPR as generally described in Example 9 above. Antibodies were normalized to 50 nM concentration in PBST pH 7.4 and captured on a Protein A CM5 chip (ID 4931) by injecting for 45 seconds at a 5 µL/min flow rate. An 8-point human VISTA titration ([…]) was prepared in PBST at pH 7.4, 6.9, 6.45, and 6.0. Titrations were injected over the captured antibodies for 180 seconds at 30 µL/min. Sensorgrams were fit to a 1:1 binding model in T200 evaluation software and the kinetic constants were reported.
Each table reports the data at one of the four tested pHs (7.4, 6.9, 6.45, and 6.0, respectively). The 8-point hVISTA titration used in these assays was chosen to provide increased confidence in kinetic values reported at neutral pH conditions. A relatively stringent cutoff for non-binding was applied in this assay. Certain progeny of P1-061029 antibody (P1-068757, ‘759, ‘765, ‘771, and ‘775) show no binding to hVISTA at micromolar concentrations at pH 7.4, while ‘761 and ‘767 show no binding to hVISTA at 100 nM at pH 7.4 but do show binding to hVISTA at micromolar concentrations.

hVISTA-ECD 6-His tag [3] = target: T2, hVISTA-ECD 6-His tag; experiment: SPR, Ab on Protein A, hVISTA analyte, pH 6.45
hVISTA-ECD 6-His tag [4] = target: T2, hVISTA-ECD 6-His tag; experiment: SPR, Ab on Protein A, hVISTA analyte, pH 6.0
hVISTA-ECD 6-His tag [5] = target: T2, hVISTA-ECD 6-His tag; experiment: SPR 37 C, Ab on Protein A, pH 6.0
hVISTA-ECD 6-His tag [6] = target: T2, hVISTA-ECD 6-His tag; experiment: SPR 37 C, Ab on Protein A, pH 7.4

Kd [1] [nM] | koff [1] [s⁻¹] | kon [1] [M⁻¹ s⁻¹] | Kd (hVISTA-ECD 6-His tag [5]) [nM] | koff (hVISTA-ECD 6-His tag [5]) [s⁻¹] | kon (hVISTA-ECD 6-His tag [5]) [M⁻¹ s⁻¹] | Kd (hVISTA-ECD 6-His tag [6]) [nM] | koff (hVISTA-ECD 6-His tag [6]) [s⁻¹] | kon (hVISTA-ECD 6-His tag [6]) [M⁻¹ s⁻¹] | Binder | further results
25 | 0.018 | 760000 | – | – | – | – | – | – | P1-068771 (antibody, human IgG1, kappa, V domains shown, IgG1.3; also called P1-068771-10) VH: EVQLVESGGGLVQPGKSLRLSCAASGFTLEDEAMHWVRQAPGKGLEWVSGINWNSHEIGYADSVKGRFTISRDNAKNSLYLQMNSLRTEDTALYYCAKVPGYSGGWIDAEDDWGQGTMVTVSS VL: not shown | –
1.1 | 0.0095 | 8.4e+06 | – | – | – | – | – | – | P1-068736 (antibody, human IgG1, kappa, V domains shown, IgG1.3) VH: QVQLVESGGGVVQPGRSLRLSCAASGFTFSEYAMHWVRQAPGKGLEWVAIDWYDGSNKDYADSVKGRFTISRDNSKNTLYLQMNSLRAEDTAVYYCARDSGFYDSYYFDDWGQGTLVTVSS VL: EIVLTQSPATLSLSPGERATLSCRASQSVSSSYLAWYQQKPGQAPRLLIYDASNRATGIPARFSGSGSGTDFTLTISSLEPEDFATYYCQQYNSYPYTFGQGTKLEIKR | –
5.6 | 0.034 | 6.1e+06 | – | – | – | – | – | – | P1-068752 (antibody, human IgG1, kappa, V domains shown, IgG1.3) VH: QVQLVESGGGVVQPGRSLRLSCAASGFTFSSYAMHWVRQAPGKGLEWVAEIWYDGSNKDYADSVKGRFTISRDNSKNTLYLQMNSLRAEDTAVYYCARDSGFYDSYYFDEWGQGTLVTVSS VL: EIVLTQSPATLSLSPGERATLSCRASQSVSSSYLAWYQQKPGQAPRLLIYDASNRATGIPARFSGSGSGTDFTLTISSLEPEDFATYYCQQYNSYPYTFGQGTKLEIKR | –

Continued, binder first:

Binder | Kd [1] [nM] | koff [1] [s⁻¹] | kon [1] [M⁻¹ s⁻¹] | Kd (hVISTA-ECD 6-His tag [5]) [nM] | koff (hVISTA-ECD 6-His tag [5]) [s⁻¹] | kon (hVISTA-ECD 6-His tag [5]) [M⁻¹ s⁻¹] | Kd (hVISTA-ECD 6-His tag [6]) [nM] | koff (hVISTA-ECD 6-His tag [6]) [s⁻¹] | kon (hVISTA-ECD 6-His tag [6]) [M⁻¹ s⁻¹] | further results
P1-069061 (antibody, human IgG1, kappa, V domains shown, IgG1.3) VH: EVQLVESGGGLVQPGKSLRLSCAASGFTLEDYAMHWVRQAPGKGLEWVSGINWNSAEIGYADSVKGRFTISRDNAKNSLYLQMNSLRTEDTALYYCAKVPGYSGGWIDAEDDWGQGTMVTVSS VL: not shown | 2.5 | 0.0011 | 430000 | – | – | – | – | – | – | –
P1-072000 (P1-061029_F100fE_V102D) (antibody, human IgG1, kappa, V domains shown, also called P1-072000-3; P1-72000) VH: EVQLVESGGGLVQPGKSLRLSCAASGFTLDDYAMHWVRQAPGKGLEWVSGINWNSANIGYADSVKGRFTISRDNAKNSLYLQMNSLRTEDTALYYCAKVPGYSGGWIDAEDDWGQGTMVTVSS VL: not shown | – | – | – | – | – | – | – | – | – | Kd (hVISTA-ECD 6-His tag [2]): 280 nM and 250 nM; koff (hVISTA-ECD 6-His tag [2]): 0.011 s⁻¹; kon (hVISTA-ECD 6-His tag [2]): 39000 M⁻¹ s⁻¹ and 42000 M⁻¹ s⁻¹; Kd (hVISTA-ECD 6-His tag [3]): 47 nM and 27 nM; koff (hVISTA-ECD 6-His tag [3]): 0.0053 s⁻¹ and 0.0044 s⁻¹; kon (hVISTA-ECD 6-His tag [3]): 110000 M⁻¹ s⁻¹ and 160000 M⁻¹ s⁻¹; Kd (hVISTA-ECD 6-His tag [4]): 11 nM and 5.8 nM; koff (hVISTA-ECD 6-His tag [4]): 0.0027 s⁻¹ and 0.0026 s⁻¹; kon (hVISTA-ECD 6-His tag [4]): 250000 M⁻¹ s⁻¹ and 450000 M⁻¹ s⁻¹
P1-077835 (P1-068744 E31S) (antibody, V domains shown) VH: QVQLVESGGGVVQPGRSLRLSCAASGFTFSSYAMHWVRQAPGKGLEWVAHIWYDGSNKYEADSVKGRFTISRDNSKNTLYLQMNSLRAEDTAVYYCARDSGFYESYYFDEWGQGTLVTVSS VL: EIVLTQSPATLSLSPGERATLSCRASQSVSSSYLAWYQQKPGQAPRLLIYDASNRATGIPARFSGSGSGTDFTLTISSLEPEDFATYYCQQYNSYPYTFGQGTKLEIK | – | – | – | 7.7 | 0.0017 | 220000 | 660 | 0.026 | 39000 | –
P1-068744 (antibody, human IgG1, kappa, V domains shown, IgG1.3; also called P1-068744-7) VH: QVQLVESGGGVVQPGRSLRLSCAASGFTFSEYAMHWVRQAPGKGLEWVAHIWYDGSNKYEADSVKGRFTISRDNSKNTLYLQMNSLRAEDTAVYYCARDSGFYESYYFDEWGQGTLVTVSS VL: EIVLTQSPATLSLSPGERATLSCRASQSVSSSYLAWYQQKPGQAPRLLIYDASNRATGIPARFSGSGSGTDFTLTISSLEPEDFATYYCQQYNSYPYTFGQGTKLEIKR | 1.3 | 0.0018 | 1.3e+06 | – | – | – | – | – | – | –
P1-077839 (P1-068744 E59Y) (antibody, V domains shown) VH: QVQLVESGGGVVQPGRSLRLSCAASGFTFSEYAMHWVRQAPGKGLEWVAHIWYDGSNKYYADSVKGRFTISRDNSKNTLYLQMNSLRAEDTAVYYCARDSGFYESYYFDEWGQGTLVTVSS VL: EIVLTQSPATLSLSPGERATLSCRASQSVSSSYLAWYQQKPGQAPRLLIYDASNRATGIPARFSGSGSGTDFTLTISSLEPEDFATYYCQQYNSYPYTFGQGTKLEIK | – | – | – | 85 | 0.054 | 630000 | 1300 | 0.093 | 71000 | –
P1-077837 (P1-068744 H50I) (antibody, V domains shown) VH: QVQLVESGGGVVQPGRSLRLSCAASGFTFSEYAMHWVRQAPGKGLEWVAIIWYDGSNKYEADSVKGRFTISRDNSKNTLYLQMNSLRAEDTAVYYCARDSGFYESYYFDEWGQGTLVTVSS VL: EIVLTQSPATLSLSPGERATLSCRASQSVSSSYLAWYQQKPGQAPRLLIYDASNRATGIPARFSGSGSGTDFTLTISSLEPEDFATYYCQQYNSYPYTFGQGTKLEIK | – | – | – | 2.5 | 0.003 | 1.2e+06 | 26 | 0.0033 | 130000 | –
